Data taken from patent US20240076370A1 (Memorial Sloan Kettering, published 2024).

B1: ET150-155 scFv (scFv)
scFv: QSVLTQPPSASGTPGQRVTISCSGSRSNVGGNYVFWYQQVPGATPKLLIYRSNQRPSGVPDRFAGSKSGSSASLAISGLRSEDEADYYCATWDDSLSGFVFGTGTKVTVLGSRGGGGSGGGGSGGGGSLEMAEVQLVESGGGLVKPGGSLRLSCAASGFTFSDYYMSWIRQAPGKGLEWVSYISSSGSTIYYADSVKGRFTISRDNAKNSLYLQMNSLRAEDTAVYYCARGYGKAYDQWGQGTLVTVSS
notes: also called ET150-5 scFv
B2: ET150-2 mIgG1 (antibody, V domains shown)
VH: QMQLVQSGAEVKKPGASVKVSCKASGYTFNRYAITWVRQAPGQGLEWMGWISAYNGNSHYAQKLQGRVTMTTDTSTGTAYMELRRLRSDDTAVYYCARMAYDSWGQGTLVTVSS
VL: QSVLTQPASVSGSPGQSLTISCTGTSNDVGAYKYVSWYQQYPGKAPKLILYDVFKRPSGVSNRFSGSKSDNTASLTISGLQAEDEADYYCFSLTSSNTYVFGTGTKVTVLG
notes: also called ET150-152
B3: ET150-158 scFv (scFv)
scFv: SSELTQDPAVSVALGQTVRITCQGDSLRSYYASWYQQKPGQAPVLVIYGKNNRPSGIPDRFSGSSSGNTASLTITGAQAEDEADYYCNSRDSSGNPPVVFGGGTKLTVLGSRGGGGSGGGGSGGGGSLEMAQVQLVESGGGLVHPGGSLRLSCAASGFTFRSHSMNWVRQAPGKGLEWVSSISSDSTYTYYADSVKGRFTISRDNAKNSLYLQMNSLRAEDTAVYYCARSGGQWKYYDYWGQGTLVTVSS
notes: also called ET150-8 scFv
B4: ET150-5 mIgG1 (antibody, V domains shown)
VH: EVQLVESGGGLVKPGGSLRLSCAASGFTFSDYYMSWIRQAPGKGLEWVSYISSSGSTIYYADSVKGRFTISRDNAKNSLYLQMNSLRAEDTAVYYCARGYGKAYDQWGQGTLVTVSS
VL: QSVLTQPPSASGTPGQRVTISCSGSRSNVGGNYVFWYQQVPGATPKLLIYRSNQRPSGVPDRFAGSKSGSSASLAISGLRSEDEADYYCATWDDSLSGFVFGTGTKVTVLG
notes: also called ET150-155
B5: ET150-152 scFv (scFv)
scFv: QSVLTQPASVSGSPGQSLTISCTGTSNDVGAYKYVSWYQQYPGKAPKLILYDVFKRPSGVSNRFSGSKSDNTASLTISGLQAEDEADYYCFSLTSSNTYVFGTGTKVTVLGSRGGGGSGGGGSGGGGSLEMAQMQLVQSGAEVKKPGASVKVSCKASGYTFNRYAITWVRQAPGQGLEWMGWISAYNGNSHYAQKLQGRVTMTTDTSTGTAYMELRRLRSDDTAVYYCARMAYDSWGQGTLVTVSS
notes: also called ET150-2 scFv
B6: ET150-157 scFv (scFv)
scFv: SYELTQPPSASGTPGQRVTISCSGSSSNIGSNYVSWYQQLPGTAPKLLIYRNNQRPSGVPDRFSGSKSGTSASLAISGLRSEDEADYYCAAWDDSLSGVVFGGGTKLTVLGSRGGGGSGGGGSGGGGSLEMAEVQLVQSGAEVKKPGSSVKVSCKASGGTFSSYAISWVRQAPGQGLEWMGGIIPIFGTAKYAQKFQGRVTITADESTSTAYMELSSLRSEDTAVYYCARSHVAWSLLDYWGQGTLVTVSS
notes: also called ET150-7 scFv
B7: ET150-168 scFv (scFv)
scFv: QSVVTQPPSMSAAPGQQVTISCSGGNSNIERNYVSWYLQLPGTAPKLVIFDNDRRPSGIPDRFSGSKSGTSATLGITGLQTGDEADYYCGTWDSSLRGWVFGGGTKLTVLGSRGGGGSGGGGSGGGGSLEMAEVQLVESGGGLIQPGGSLRLSCAASGFTFSNYAMNWVRQAPGKGLEWVSTINGRGSSTIYADSVKGRFTISRDNSKNTLYLQMNSLRAEDTATYYCARYISRGLGDSWGQGTLVTV
notes: also called ET150-18 scFv
B8: ET150-159 scFv (scFv)
scFv: QSVLTQPPSASGTPGQRVTISCSGSSSNIGSNYVYWYQQLPGTAPKLLIYRNNQRPSGVPDRFSGSKSGTSASLAISGLRSEDEADYYCAAWDDSLSGWVFGGGTKLTVLGSRGGGGSGGGGSGGGGSLEMAQVQLVQSGAEVKKPGSSVKVSCKASGGTFSSYAISWVRQAPGQGLEWMGWMNPNSGNTGYAQKFQGRVTMTRNTSISTAYMELSSLRSEDTAVYYCARYQSYKGSQSDSWGQGTLVTVSS
notes: also called ET150-9 scFv
B9: ET150-8 mIgG1 (antibody, V domains shown)
VH: QVQLVESGGGLVHPGGSLRLSCAASGFTFRSHSMNWVRQAPGKGLEWVSSISSDSTYTYYADSVKGRFTISRDNAKNSLYLQMNSLRAEDTAVYYCARSGGQWKYYDYWGQGTLVTVSS
VL: SSELTQDPAVSVALGQTVRITCQGDSLRSYYASWYQQKPGQAPVLVIYGKNNRPSGIPDRFSGSSSGNTASLTITGAQAEDEADYYCNSRDSSGNPPVVFGGGTKLTVLG
notes: also called ET150-158
B10: ET150-151 scFv (scFv)
scFv: QSVVTQPASVSGSPGQSITISCTGTSSDVGGYNYVSWYQQHPGKAPKLMIYDVSKRPSGVSNRFSGSKSGNTASLTISGLQAEDEADYYCSSYTSSSTLVFGGGTKLTVLGSRGGGGSGGGGSGGGGSLEMAEVQLVESGGAFVQPGGSLRLSCAASGFTFSSYAMTWVRQAPGKGLEWVSTISGRGRSTFYADSVKGRFTISRDNSKNTLYLQMNSLRAEDTAVYYCARYYHAGAFDLWGQGTLVTVSS
notes: also called ET150-1 scFv
B11: ET150-18 mIgG1 (antibody, V domains shown)
VH: EVQLVESGGGLIQPGGSLRLSCAASGFTFSNYAMNWVRQAPGKGLEWVSTINGRGSSTIYADSVKGRFTISRDNSKNTLYLQMNSLRAEDTATYYCARYISRGLGDSWGQGTLVTV
VL: QSVVTQPPSMSAAPGQQVTISCSGGNSNIERNYVSWYLQLPGTAPKLVIFDNDRRPSGIPDRFSGSKSGTSATLGITGLQTGDEADYYCGTWDSSLRGWVFGGGTKLTVLG
notes: also called ET150-168

How the values were obtained:
[1] = molecular target: T1, human G-protein coupled receptor family C group 5 member D (GPRC5D) (human, UniProt Q9NZD1 1-345); assay: flow cytometry: phage clone on 3T3-GPRC5D cells (printed 3T3-ET150), anti-M13 mouse antibody, then APC-labelled anti-mouse IgG; control without phage (A04 anti-M13+ APC mIgG) median 10.9
T1 construct: Overexpressed on 3T3 cells in the FACS assays; also called human GPRC5D; 3T3-GPRC5D
Procedure: FACS Screening. […] Phage clones were incubated with 3T3-GPRC5D cell line, then with anti-M13 mouse antibody. Finally APC-labeled anti-mouse IgG 2nd antibody was added to the reaction after washing again. The binding was measured by FACS and expressed as mean fluorescence intensity (MFI). Cells incubated with M13 K07 helper phage and cells only were used as negative controls.

[2] = molecular target: T1, human G-protein coupled receptor family …; assay: flow cytometry (MFI, FL2) on 3T3-GPRC5D and parental 3T3 cells at 10 and 1 µg/mL, PE-labelled anti-mouse IgG secondary antibody
Procedure: Each antibody (ET150-1, ET150-2, ET150-5, ET150-8, ET150-18) was incubated with 3T3 or 3T3-GPRC5D cells at 10 or 1 μg/mL, then with anti-M13 mouse antibody. Finally PE-labeled anti-mouse IgG 2nd antibody was added to the reaction. The binding was measured by FACS and expressed as mean fluorescence intensity (MFI) (FIG. 13). Cells incubated with 2nd antibody alone, ET901 mIgG1 isotype control and cells only were used as negative controls.

[3] = molecular target: T1, human G-protein coupled receptor family …; assay: FACS, scFv phage clones on 3T3 cells overexpressing GPRC5D

T1 sequence (Q9NZD1 whole entry): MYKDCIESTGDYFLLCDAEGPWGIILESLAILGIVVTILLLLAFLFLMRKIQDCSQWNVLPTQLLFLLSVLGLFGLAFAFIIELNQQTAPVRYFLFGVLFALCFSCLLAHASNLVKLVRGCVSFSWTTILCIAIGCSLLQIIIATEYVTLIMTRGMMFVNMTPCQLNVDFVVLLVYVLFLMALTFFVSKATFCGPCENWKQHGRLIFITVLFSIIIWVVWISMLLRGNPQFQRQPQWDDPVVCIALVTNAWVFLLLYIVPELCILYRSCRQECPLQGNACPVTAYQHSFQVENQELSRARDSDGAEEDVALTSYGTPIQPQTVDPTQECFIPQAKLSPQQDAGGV

| Binder | Median, RED2-HLin [1] | binding result [2] | also measured |
| --- | --- | --- | --- |
| B1 | 3220 |  |  |
| B2 |  | binds |  |
| B3 | 3110 |  |  |
| B4 |  | binds |  |
| B5 | 2400 |  |  |
| B6 |  |  | binding result [3]: binds |
| B7 | 3180 |  |  |
| B8 |  |  | binding result [3]: binds |
| B9 |  | binds |  |
| B10 | 3230 |  |  |
| B11 |  | binds |  |
